B1: Tumor protein p73, residues 487 to 549; numbered along this chain, O15350 (parent)
chain: YHADPSLVSFLTGLGCPNCIEYFTSQGLQSIYHLQNLTIEDLGALKIPEQYRMTIWRGLQDLK

± gives the uncertainty stated by the source.

The variants in the data set derive from B1. Description: abundance fitness (aPCA) (normalised: wild type 0, dead -1); higher = more abundant; growth selection in yeast, the domain comes from the species named. To be noted: Homo sapiens.
Take YHADPSLVSFLTGLGCPNCIEYFTSGGLQSIYHLQNLTIEDLGALKIPEQYRMTIWRGLQDLK [Q26G]: the abundance fitness was -0.034 ± 0.035. The same measure for YHADPSLVSFLTGLGCPNCIEYFTSEGLQSIYHLQNLTIEDLGALKIPEQYRMTIWRGLQDLK [Q26E]: 0.011 ± 0.038; for YHADPSLVSFLTGLGCPNCIEYFTSDGLQSIYHLQNLTIEDLGALKIPEQYRMTIWRGLQDLK [Q26D]: -0.2 ± 0.086. The same measure for YHADPSLVSFLTGLGCPNCIEYFTSKGLQSIYHLQNLTIEDLGALKIPEQYRMTIWRGLQDLK [Q26K]: 0.032 ± 0.048. The same measure for YHADPSLVSFLTGLGCPNCIEYFTSNGLQSIYHLQNLTIEDLGALKIPEQYRMTIWRGLQDLK [Q26N]: 0.109 ± 0.072.

For YHADPSLVSFLTGLGCPNCIEYFTSHGLQSIYHLQNLTIEDLGALKIPEQYRMTIWRGLQDLK [Q26H], the abundance fitness came out at 0.035 ± 0.085.

As to YHADPSLVSFLTGLGCPNCIEYFTSLGLQSIYHLQNLTIEDLGALKIPEQYRMTIWRGLQDLK [Q26L], the abundance fitness was -0.199 ± 0.04.

Turning to YHADPSLVSFLTGLGCPNCIEYFTSCGLQSIYHLQNLTIEDLGALKIPEQYRMTIWRGLQDLK [Q26C], the abundance fitness was -0.057 ± 0.052. For YHADPSLVSFLTGLGCPNCIEYFTSTGLQSIYHLQNLTIEDLGALKIPEQYRMTIWRGLQDLK [Q26T] the value was -0.082 ± 0.06; for YHADPSLVSFLTGLGCPNCIEYFTSMGLQSIYHLQNLTIEDLGALKIPEQYRMTIWRGLQDLK [Q26M], -0.207 ± 0.044; for YHADPSLVSFLTGLGCPNCIEYFTSIGLQSIYHLQNLTIEDLGALKIPEQYRMTIWRGLQDLK [Q26I], -0.163 ± 0.33. As for YHADPSLVSFLTGLGCPNCIEYFTSSGLQSIYHLQNLTIEDLGALKIPEQYRMTIWRGLQDLK [Q26S], the abundance fitness was -0.004 ± 0.032. For YHADPSLVSFLTGLGCPNCIEYFTSPGLQSIYHLQNLTIEDLGALKIPEQYRMTIWRGLQDLK [Q26P] the value was -0.204 ± 0.052; for YHADPSLVSFLTGLGCPNCIEYFTSFGLQSIYHLQNLTIEDLGALKIPEQYRMTIWRGLQDLK [Q26F], -0.18 ± 0.077; for YHADPSLVSFLTGLGCPNCIEYFTSAGLQSIYHLQNLTIEDLGALKIPEQYRMTIWRGLQDLK [Q26A], 0.079 ± 0.037. For YHADPSLVSFLTGLGCPNCIEYFTSRGLQSIYHLQNLTIEDLGALKIPEQYRMTIWRGLQDLK [Q26R] the value was 0.001 ± 0.034; for YHADPSLVSFLTGLGCPNCIEYFQSQGLQSIYHLQNLTIEDLGALKIPEQYRMTIWRGLQDLK [T24Q], -0.086 ± 0.056. The same measure for YHADPSLVSFLTGLGCPNCIEYFYSQGLQSIYHLQNLTIEDLGALKIPEQYRMTIWRGLQDLK [T24Y]: -0.206 ± 0.15; for YHADPSLVSFLTGLGCPNCIEYFPSQGLQSIYHLQNLTIEDLGALKIPEQYRMTIWRGLQDLK [T24P]: -0.461 ± 0.13; for YHADPSLVSFLTGLGCPNCIEYFNSQGLQSIYHLQNLTIEDLGALKIPEQYRMTIWRGLQDLK [T24N]: -0.224 ± 0.13. Take YHADPSLVSFLTGLGCPNCIEYFMSQGLQSIYHLQNLTIEDLGALKIPEQYRMTIWRGLQDLK [T24M]: the abundance fitness came to 0.018 ± 0.044. For YHADPSLVSFLTGLGCPNCIEYFRSQGLQSIYHLQNLTIEDLGALKIPEQYRMTIWRGLQDLK [T24R] the value was -0.083 ± 0.031. For YHADPSLVSFLTGLGCPNCIEYFWSQGLQSIYHLQNLTIEDLGALKIPEQYRMTIWRGLQDLK [T24W] the value was -0.187 ± 0.037; for YHADPSLVSFLTGLGCPNCIEYFSSQGLQSIYHLQNLTIEDLGALKIPEQYRMTIWRGLQDLK [T24S], -0.007 ± 0.042; for YHADPSLVSFLTGLGCPNCIEYFKSQGLQSIYHLQNLTIEDLGALKIPEQYRMTIWRGLQDLK [T24K], -0.013 ± 0.056.

As for YHADPSLVSFLTGLGCPNCIEYFVSQGLQSIYHLQNLTIEDLGALKIPEQYRMTIWRGLQDLK [T24V], the abundance fitness was -0.077 ± 0.038.

For the variant YHADPSLVSFLTGLGCPNCIEYFLSQGLQSIYHLQNLTIEDLGALKIPEQYRMTIWRGLQDLK [T24L], the abundance fitness is -0.037 ± 0.039. For YHADPSLVSFLTGLGCPNCIEYFHSQGLQSIYHLQNLTIEDLGALKIPEQYRMTIWRGLQDLK [T24H] the value was -0.123 ± 0.12; for YHADPSLVSFLTGLGCPNCIEYFTKQGLQSIYHLQNLTIEDLGALKIPEQYRMTIWRGLQDLK [S25K], 0.046 ± 0.044. The same measure for YHADPSLVSFLTGLGCPNCIEYFTCQGLQSIYHLQNLTIEDLGALKIPEQYRMTIWRGLQDLK [S25C]: 0.012 ± 0.059; for YHADPSLVSFLTGLGCPNCIEYFTDQGLQSIYHLQNLTIEDLGALKIPEQYRMTIWRGLQDLK [S25D]: -0.074 ± 0.14; for YHADPSLVSFLTGLGCPNCIEYFTWQGLQSIYHLQNLTIEDLGALKIPEQYRMTIWRGLQDLK [S25W]: -0.361 ± 0.041. For YHADPSLVSFLTGLGCPNCIEYFTLQGLQSIYHLQNLTIEDLGALKIPEQYRMTIWRGLQDLK [S25L] the value was -0.055 ± 0.034.

Turning to YHADPSLVSFLTGLGCPNCIEYFTEQGLQSIYHLQNLTIEDLGALKIPEQYRMTIWRGLQDLK [S25E], the abundance fitness is 0.129 ± 0.046. For YHADPSLVSFLTGLGCPNCIEYFTGQGLQSIYHLQNLTIEDLGALKIPEQYRMTIWRGLQDLK [S25G] the value was 0.029 ± 0.031; for YHADPSLVSFLTGLGCPNCIEYFTQQGLQSIYHLQNLTIEDLGALKIPEQYRMTIWRGLQDLK [S25Q], 0.051 ± 0.043. For YHADPSLVSFLTGLGCPNCIEYFTNQGLQSIYHLQNLTIEDLGALKIPEQYRMTIWRGLQDLK [S25N] the value was 0.001 ± 0.1; for YHADPSLVSFLTGLGCPNCIEYFTMQGLQSIYHLQNLTIEDLGALKIPEQYRMTIWRGLQDLK [S25M], -0.051 ± 0.047.

On to YHADPSLVSFLTGLGCPNCIEYFTYQGLQSIYHLQNLTIEDLGALKIPEQYRMTIWRGLQDLK [S25Y], for which the abundance fitness was -0.266 ± 0.082. In the case of YHADPSLVSFLTGLGCPNCIEYFTAQGLQSIYHLQNLTIEDLGALKIPEQYRMTIWRGLQDLK [S25A], the abundance fitness turned out to be 0.03 ± 0.036. For YHADPSLVSFLTGLGCPNCIEYFTPQGLQSIYHLQNLTIEDLGALKIPEQYRMTIWRGLQDLK [S25P] the value was -0.179 ± 0.052; for YHADPSLVSFLTGLGCPNCIEYFTIQGLQSIYHLQNLTIEDLGALKIPEQYRMTIWRGLQDLK [S25I], -0.195 ± 0.054; for YHADPSLVSFLTGLGCPNCIEYFTFQGLQSIYHLQNLTIEDLGALKIPEQYRMTIWRGLQDLK [S25F], -0.197 ± 0.069.
